The results in this text go back to US20090324603A1 (VAN ANDEL RESEARCH INSTITUTE, published 2009).

For experiment [1], the target named is human c-Met (HGF/SF receptor) on S114 and MKN45 cells (human, UniProt P08581 25-1390). The experiment is described as follows: cell-based or functional assay.
The target in experiment [2] is T1, recombinant c-Met antigen (human, UniProt P08581 25-932, limits assumed).
T1 construct: also called immobilized Met antigen; human Met antigen
Description: non-competitive ELISA with serial dilutions of both Met and scFv (Beatty method). A general note: An ELISA detects its analyte on a solid surface through an enzyme-linked reagent.
Description: (§1) The most commonly used formula was established by David Beatty and the equation was Kaff=(n−1)/(2{n[Ab′]ₜ−[Ab]ₜ}) (n=[Ag]/[Ag′]). This method utilized OD-50 of the sigmoid curve and obviated the need for affinity purification of antibody used as standard. Using serial dilutions of both antigen ([Ag], [Ag′]) and antibody (scFv antibody), the affinity constant (Kaff) was measured by non-competitive ELISA. Two sigmoid curves of optical density (OD) versus logarithms of antibody concentrations were estimated by SPSS 10.0 software. The maximum value of OD (OD-100) of each curve was computed respectively and OD-50, half of OD-100, was obtained. Then the concentrations of antibody corresponding to OD-50 on the curves, named [Ab]ₜ and [Ab′]ₜ were calculated. For [Ag′]=½[Ag], Kaff=1/{2[Ab′]ₜ−[Ab]ₜ}.

The target in experiment [3] is T1, recombinant c-Met antigen. The experiment is described as follows: non-competitive ELISA, Kd of scFv-S1 against Kd of the original Fab.
Description: as §1

human c-Met (HGF/SF receptor) on S114 and MKN45 cells, sequence (P08581 25-1390): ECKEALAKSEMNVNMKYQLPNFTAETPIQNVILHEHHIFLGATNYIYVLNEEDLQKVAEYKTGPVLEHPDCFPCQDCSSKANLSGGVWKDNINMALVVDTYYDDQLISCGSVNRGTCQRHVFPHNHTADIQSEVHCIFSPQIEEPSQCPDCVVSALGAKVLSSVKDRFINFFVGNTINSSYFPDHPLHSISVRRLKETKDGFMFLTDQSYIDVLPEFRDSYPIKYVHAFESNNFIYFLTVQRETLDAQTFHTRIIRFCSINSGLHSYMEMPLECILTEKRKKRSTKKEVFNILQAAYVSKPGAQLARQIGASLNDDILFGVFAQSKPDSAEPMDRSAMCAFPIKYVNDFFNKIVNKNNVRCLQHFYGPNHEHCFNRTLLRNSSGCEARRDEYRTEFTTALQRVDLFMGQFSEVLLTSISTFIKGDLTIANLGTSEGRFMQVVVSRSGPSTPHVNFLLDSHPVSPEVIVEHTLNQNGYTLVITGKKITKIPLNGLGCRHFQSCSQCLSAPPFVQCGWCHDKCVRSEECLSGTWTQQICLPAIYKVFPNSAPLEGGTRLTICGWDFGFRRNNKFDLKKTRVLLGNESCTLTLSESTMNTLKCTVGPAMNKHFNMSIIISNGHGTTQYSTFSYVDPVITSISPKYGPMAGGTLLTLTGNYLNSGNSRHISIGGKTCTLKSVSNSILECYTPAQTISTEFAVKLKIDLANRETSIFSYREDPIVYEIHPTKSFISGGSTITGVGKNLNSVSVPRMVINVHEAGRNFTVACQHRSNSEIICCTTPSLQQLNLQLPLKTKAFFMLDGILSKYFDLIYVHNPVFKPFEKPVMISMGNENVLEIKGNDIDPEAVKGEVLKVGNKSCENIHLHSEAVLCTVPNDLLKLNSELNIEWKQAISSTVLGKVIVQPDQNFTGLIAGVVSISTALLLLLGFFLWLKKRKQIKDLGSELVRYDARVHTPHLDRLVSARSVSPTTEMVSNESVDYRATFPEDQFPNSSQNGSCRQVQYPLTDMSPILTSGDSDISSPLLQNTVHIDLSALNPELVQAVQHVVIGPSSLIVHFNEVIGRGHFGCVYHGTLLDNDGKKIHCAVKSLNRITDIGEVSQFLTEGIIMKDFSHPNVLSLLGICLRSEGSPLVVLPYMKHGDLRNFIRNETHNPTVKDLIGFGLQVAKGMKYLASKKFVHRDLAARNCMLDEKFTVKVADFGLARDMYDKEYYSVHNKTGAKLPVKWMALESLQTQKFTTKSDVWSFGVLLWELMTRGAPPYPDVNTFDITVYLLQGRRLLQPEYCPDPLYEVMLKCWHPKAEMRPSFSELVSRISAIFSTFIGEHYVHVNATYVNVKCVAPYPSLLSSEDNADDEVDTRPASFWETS
T1 sequence (P08581 25-932 limits assumed): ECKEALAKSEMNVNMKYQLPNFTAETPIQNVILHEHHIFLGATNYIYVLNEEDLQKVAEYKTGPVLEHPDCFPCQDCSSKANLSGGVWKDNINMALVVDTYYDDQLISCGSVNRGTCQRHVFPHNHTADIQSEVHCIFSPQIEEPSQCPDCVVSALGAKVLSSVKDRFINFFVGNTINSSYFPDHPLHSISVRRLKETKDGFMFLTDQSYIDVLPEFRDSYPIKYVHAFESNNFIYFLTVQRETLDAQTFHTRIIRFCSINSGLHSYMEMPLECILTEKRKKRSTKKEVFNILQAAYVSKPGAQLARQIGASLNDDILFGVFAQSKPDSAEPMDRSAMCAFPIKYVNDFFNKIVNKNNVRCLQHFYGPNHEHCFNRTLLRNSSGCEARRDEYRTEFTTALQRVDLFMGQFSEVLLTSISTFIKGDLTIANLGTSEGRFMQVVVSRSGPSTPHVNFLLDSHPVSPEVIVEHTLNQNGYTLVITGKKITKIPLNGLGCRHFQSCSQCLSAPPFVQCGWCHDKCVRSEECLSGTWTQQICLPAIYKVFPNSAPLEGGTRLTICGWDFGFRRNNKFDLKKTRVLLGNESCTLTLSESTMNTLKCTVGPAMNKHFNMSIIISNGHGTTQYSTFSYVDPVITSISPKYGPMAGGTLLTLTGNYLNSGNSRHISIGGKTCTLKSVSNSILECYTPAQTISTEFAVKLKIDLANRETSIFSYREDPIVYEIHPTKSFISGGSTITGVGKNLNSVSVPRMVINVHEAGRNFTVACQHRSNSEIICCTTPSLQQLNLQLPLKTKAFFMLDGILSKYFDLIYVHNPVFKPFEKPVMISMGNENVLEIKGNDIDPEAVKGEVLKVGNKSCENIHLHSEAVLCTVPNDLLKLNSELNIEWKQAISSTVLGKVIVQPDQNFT

B1: anti-Met Fab-Met-2 (Fab, V domains shown)
VH: EVQLVESGGGVVQPGRSLRLSCAASGFTFSSYAMHWVRQAPGKGLEWVAVIWYDGSNRYYADSVKGRFTISRDNSKNTLYLQMNSLRAEDTAVYYCASQATEGLIWGQGTLVTVSP
VL: ELQMTQSPSLLSASTGDRVTISCRASQSISSYLNWYQQKPGKAPKLLIYTRSSLQSGVPSRFSGSGSGTDFTLTISSLQPEDFATYYCQQSYSTPHTFGQGTKLEIKR
With B1, in experiment [1], the “inhibition ratio of S114 cells incubated with 800 ng Fab and Hum-ZAP, 72 hrs” value was 73.8%; the “inhibition ratio of S114 cells incubated with 800 ng Fab and Hum-ZAP, 96 hrs” value stood at 62.7%.

B2: anti-Met scFv-S1 (scFv)
scFv: ELQMTQSPSLLSASTGDRVTISCRASQSISSYLNWYQQKPGKAPKLLIYTRSSLQSGVPSRFSGSGSGTDFTLTISSLQPEDFATYYCQQSYSTPHTFGQGTKLEIKGGSSRSSSSGGGGSGGGGEVQLVESGGGVVQPGRSLRLSCAASGFTFSSYAMHWVRQAPGKGLEWVAVIWYDGSNRYYADSVKGRFTISRDNSKNTLYLQMNSLRAEDTAVYYCASQATEGLIWGQGTLVTVSP
notes: also called scFv Si; S1 phage
As a reminder, the Kd is the free concentration of one partner at which half of the binding sites on the other are occupied at equilibrium, for simple one-to-one binding. Consider B2, for which the Kd in experiment [2] amounted to 51.5 nM. Also, the “fold increase in affinity against the original Fab” value in experiment [3] is 117 times.
